From the nanobody polyreactivity screen of Harvey et al. (2022)

Assay: yeast display, Sf9 membrane polyspecificity reagent, FACS + sequencing; frameworks hold sequencing errors
How it was run: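 A nanobody's polyreactivity label depends on the gate it was sorted from. Yeast display cells were stained with 10% biotinylated, detergent-solubilized Sf9 membrane reagent for 1 hour at 4 °C, enriched on streptavidin microbeads and sorted by FACS. The low and high (top ~1%) gates were set on anti-HA fluorescence for expression and streptavidin fluorescence for reagent binding.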
With “QVQLVESGGGLVQAGGSLRLSCAASGRIFSYYAMGWYRQAPGKERELVATIDRSGDPTSYADSVKGRFTISRDNAMNTVYLKMNSLKPEDTAVYYCAATSKRARYDSWGQGTQVTVSS” the “polyreactivity (PSR sort gate)” value was “high polyreactivity”.
For “QVQLVESGGGLVQAGGSLRLSCAASGLIFILYAMGWYRQAPGKERELVAAISWTGGSTYYADSVKGRFTISRDNAKNTVYLQMNSLKPEDTAVYYCNKVGVRSGARSIYVVRRYEYWGQGTQVTVSS”, the “polyreactivity (PSR sort gate)” value was “high polyreactivity”.
In the case of “QVQLEESGGGLVQAGGSLRLSCAASGSTFTPYAMGWYRQAPGKERELVAAISWSGGSTYYADSVKGRFTISRDNAKNTVYLQMNSLKPEDTAVYYCAATYSYRTRAWGWGNYDYWGQGTQVTVSS”, the “polyreactivity (PSR sort gate)” value is reported as “high polyreactivity”.
With “QVQLVESGGGLVQAGGSLLLSGAPSGRTFPYYAMGWYRQAPGKERELVARISSDGSTTYADSVKGRITISRDHAKNTVYLQMNSLKPEDTAVYYSAADVTFAGLKYIFDYWGPGTQVTVSS” the “polyreactivity (PSR sort gate)” value was “low polyreactivity”.
For “QVQLEESGGGLVQAGGSLRLSCAASGLTFVYNAMGWYRQAPGKERELVAAISRVGSTNYADSVKGRFTISRDNAKNTVYLQMNSLKPEDTAVYYCNAERSRRYSGWVNYAPLNYWGQGTQVTVSS”, the “polyreactivity (PSR sort gate)” value was “low polyreactivity”.
For “QVQLVESGGGLVQAGGSLRLSCAASGRTFRPYAMGWYRQAPGKERELVAAIDSSGTSTYYADSVKGRFTISRDNAKNTVYLQMNSLKPEDTAVYYCNTSLKRRRLRFNYWGQGTQVTVSS”, the “polyreactivity (PSR sort gate)” value was “low polyreactivity”.
For “QVQLVESAGGLVLAGGSLRLSCAASGYTVVRYAMGWYRQEPGKERELVAAISRSGGSTYYADSVKGRFTISRDNANNTVYLQMNSLNPEDTAVYYCNAYPYSYYDYDYWGQGTQVTVSS”, the “polyreactivity (PSR sort gate)” value was “high polyreactivity”.
In the case of “QVQLVESGGGLVQAGGSLRLSCAASGSTFYFYAMGGYRQAPGKERELVAVISSGGRTYYADSVKGRFTISRDNAKNTVYLQMNSLKPEDTAVYYCAASWPSSLTYYYWGQGTQVTVSS”, the “polyreactivity (PSR sort gate)” value is reported as “low polyreactivity”.
For “QVQLVESGGGLVQAGGSLRLSCAASGRISKKYAMGWYRQAPGKERELVAAIRGSGGGTYYADSVKGRFTISRDNAKNTVYLQMNSLKPEDTAVYYCNAASRHSTAPITGYDSWGQGTQVTVSS”, the “polyreactivity (PSR sort gate)” value was “high polyreactivity”.
In the case of “QVQLVESGGGLVQAGGSLRLSCAASGSTFKVYAMGWYRQAPGKERELVAAISRSGGRTYYADSVKGRFTISRDNEKNTVYLQMNSLKPEDTAVYYCNSDYTYSQGHYSGSYDYWGQGSQVTVSS”, the “polyreactivity (PSR sort gate)” value is reported as “high polyreactivity”.
With “QVQLVESGGGLVQAGGSLRLSCAASGITFLDYAMRWYRQAPGKERELVAAITKSVGSTYYADSVKGRFTISRDNAKNTVYLQMNSLKPEDTAVYYCAADPDSGQVPFDYWGQGTQVTVSS” the “polyreactivity (PSR sort gate)” value was “low polyreactivity”.
With “QVHLVESGGGLVQAGGSLRLSCAASASIFRYYAMGRYRQAPGKERELVATISSGGRTYYADSVKGRFTISRDNAKNTVYLQMNSLKPEDPAVYYCAAVRLTWTAKYNYWGQGTQVTVSS” the “polyreactivity (PSR sort gate)” value was “high polyreactivity”.
For “QVQLVESGGGLVQAGGSLRLSCAASGGIFYLYAMGWYRQAPGKERELVASINWRSASTYYADSVKGRFTISRDNAKNTVYFQMNSLKPEDTAVYYCNVQWYGGYDYWGQGTQVTVSS”, the “polyreactivity (PSR sort gate)” value was “low polyreactivity”.
In the case of “QVQLVESGGGLVQAGGSLRLSCAASGRILYSYPMGGYRQAPGKERELVASISLSGGRTYADSVKGRFTISRDNAKNTVFLQMNSLKPVDTAVYYCNARIRTSRYLWPFDYWGQGTQVTVSS”, the “polyreactivity (PSR sort gate)” value is reported as “high polyreactivity”.
In the case of “QVQLVESGGGLVQAGGSLRLSCAASGFTFYFYAMGWYRQAPGKERELVATITIGGRTNYADSVKGRFTISRDNAKNTVYLQMNSLKPEDTAVYYCAAAYLWISRYSGYDYWGQGTQVTVSS”, the “polyreactivity (PSR sort gate)” value is reported as “high polyreactivity”.
In the case of “QVQLVESGGGLVQAGGSLRLSCAASGITFTSYAMGWYRQAPGKERELVAAISSSGGSTYYADSVKGRFTISRDNAKNTVYLQMNRLKPEDTAVFYCNARPRSRSPRVEYDYWGQGTQVNVSS”, the “polyreactivity (PSR sort gate)” value is reported as “high polyreactivity”.
For “QVQVVESGGGLVQAGGSLRLSCAASGRTFGGYDMGWYRQAPGKERELVAAISWSGGNTYYADSVKGRFTISRDNAKNTVYLQMNSLKPEDTAVYYCAAGHYVYWYRYQLGRYNYWGQGTQVTVSS”, the “polyreactivity (PSR sort gate)” value was “high polyreactivity”.
With “QVQLVESGGGLVQAGGSLRLSCAASGITLNRNAMGWYRQAPGKERELVSRISRRGGTTYYADSVKGRFTISRDNAKNTVYLLMNSLKPEDTAVYYCNAGPYGGNPFDYSGQGTQVTVSS” the “polyreactivity (PSR sort gate)” value was “high polyreactivity”.
In the case of “QVQLVESGGGLVQAGGSLRLSSAASGYILPFYAMGWYRQAPGKERELVASISSSSGRTNYADSVKGRFRISRDYAKNTVFFEMNSLKREVTEVYYCAAAFLSYVSTQYHYDYWGQGTQVSVSS”, the “polyreactivity (PSR sort gate)” value is reported as “low polyreactivity”.
In the case of “QVQLGESCGGLVQAGGSLRLSCAASGPIFRSYAMGWYRQAPGKERELVARITSGGSTNYADSVKGRFTISRDNAKNTVYLQMNSLKPEDSAVYYCARDWGKSEYDYWGQGTQVTVSS”, the “polyreactivity (PSR sort gate)” value is reported as “high polyreactivity”.
For “QVQLVESGGGLVQAGGSLRLSCAASGRIFTIYSMGWYRQAPGKERELVATISKSGGITYYADSVKGRFTISRDNAKNTVYLQMNSLKPEDTAVYYCAAAWYYSSRGFHATWGHDYWGQGTQVTVSS”, the “polyreactivity (PSR sort gate)” value was “low polyreactivity”.
With “QVQLEESGGGLVQAGGSLRLSCAASGIIFSGYAMGWYRQAPGKERELVASIRSGSNTYYADSVKGRFTISRDNAKNTVYLQMISLKPEDTAVYYCAARVVPATFRFIRYPHPYYYWGQGTQVTVSS” the “polyreactivity (PSR sort gate)” value was “low polyreactivity”.
With “QVQLVESGGGLVQAGGSLRLSCAASGSTFGVYAMGWYRQAPGKERELVAAIRWSSGSTYYADSVKGRFTISRDNAKNTVYLQMNSLKPEDTAVYYCAKTRGIYNIRFGYWGQGTQVTVSS” the “polyreactivity (PSR sort gate)” value was “high polyreactivity”.
For “QVQLVESGGGLVQAGGSLRLICAASGRIFGTNAIGWYRQAPGQEREVVATITRGGGNTYYADSVKGRFTISRDNAKNTVYLQMNSLKPEDTAVYYCAAKFHRFAWYAHYDYWGPGTQVTVSS”, the “polyreactivity (PSR sort gate)” value was “low polyreactivity”.
In the case of “QVQLVESGGGLVQAGGSLRLSCAASGSIFKSYAMGWYRKAPGKERELVAAITWRSGRTYYADSLKGRFTISRDNAKNTVYLQMNSLKPEDTAVYYCAAELVSVRYLYALHDRDYWGKGTQVTVSS”, the “polyreactivity (PSR sort gate)” value is reported as “low polyreactivity”.
With “QVQLVESAGGLVQAGGSLRLSCAASGRTFVGNAMGWYRQAPGTERELVADITWSGDITYYADSVKGRFTISRDNAKNTVYLQMNSLKPDDTAVYYCAADYHRRRTDYDYWGQGTQVTESS” the “polyreactivity (PSR sort gate)” value was “low polyreactivity”.
In the case of “QGQLVESGGGLVQAGGSRRLSCAASGYSIDNNAMGWYRQAPGKEREVVASITNSAGSTSYADSVKGRFTISRDTAKNTVYLQMNSLKPEDTAVCYCSAKRYHYFFQYSRSGAYGYWGHGTQVTVSS”, the “polyreactivity (PSR sort gate)” value is reported as “high polyreactivity”.
In the case of “QVQLVESGGGLVQAGGSLRLTCAASGSIFCAYTMGWSRQAPGKECDLVAAISASGGSTYYADSVKGRFTISRDNAKNTVYLQMNSLNPDDTAVYYCAAVYDLGYYGPIWAIVLDDYWGQGTQVTVSS”, the “polyreactivity (PSR sort gate)” value is reported as “low polyreactivity”.
For “QVQLVESGGGLVQAGGSLRLSCAASGSILLTNTMGWYRQAPGKERELVADINSGASTNYADSVKGRFTISRDNAKNTVYLQMNSLKPEDTAVYYCAADTKGGTYEYDYWGQGTKVTVSS”, the “polyreactivity (PSR sort gate)” value was “low polyreactivity”.
With “QVQLVESGGCLFQAGASLRLSCAASGRILAYYAMGWYRQAPGKERELVAAITSGGRTYYADSVKGRFTISRDNAKNTVYLQMNSLKPEDTAVYYCNRVTGYDSGDGYWGQGTQVTVSS” the “polyreactivity (PSR sort gate)” value was “high polyreactivity”.
For “QVQLVESGGGLVQAGGSLRLSCAASGIIYKYAMGWYRQAPGKERELVATITWSDGSTYYADSVKGRFTISRDNAKNTVYLQMNSLKPDDTAVYYCAADDYYGYDYWGQGTQVTVSS”, the “polyreactivity (PSR sort gate)” value was “low polyreactivity”.
With “QVQLVESGGGLVQAGGSLRLSCAASGFTLDKYAMGWYRQAPGKERELVAAITWSGGSTYYADSVKGRFTISRDNAKNTVYLQMNSLKPEDTAVYYCNVLRYRLWGQGTQVTVSS” the “polyreactivity (PSR sort gate)” value was “high polyreactivity”.
With “QVQLVESGGGLVQAGGSLRLSCADSGITFVRNAMGWYIHAPGKERECVAAISGSGVSTYADSVKGRFTISRDNAKNTVYLQMNILKPEDTAVYYCNTDEWYHFYHGAHKYDYWGQATQVTVSS” the “polyreactivity (PSR sort gate)” value was “low polyreactivity”.
For “QVQLVESGGGLVQAGGSLRLSCAASGNIFWRNAMGWYRQAPGKERELVAAISRRAVSTYYADSVKGRFTISRDNAKNTVYLQMNSLKPEDTAVYYCAARLGGENDYWGQGTQVTVSS”, the “polyreactivity (PSR sort gate)” value was “high polyreactivity”.
With “QVQLVESGGGLVQAGGSLRLSCAASGGTFVYYAMGWYRQAPGKERELVAAINWSGGSTYYADSVKGRFTISRDNAKNTVYLQMNSLKPEDTAVLLLQRSGLRRSGVWFDYWGQGTQVTVSS” the “polyreactivity (PSR sort gate)” value was “low polyreactivity”.
For “QVQLVESGGGLVQAGGSLRLSCAASGFIFPYNTMGWYRQAPGTERELVAAIDSGGSTNYADSVKGRFTISRDNAKNTVDLQMNSLKPEDTAVYYCAADDPGSWWVGLLLTGVDDDYWGQGTQVTVSS”, the “polyreactivity (PSR sort gate)” value was “low polyreactivity”.
In the case of “QVQLVESGGGLVQAGGSLRLSCAASGIIFSSNAMGWYRQAPGKERELVAAISRRGGSTSYADSVKGRFTISRDNAKNTVYLQINSLKPEDTAVYYCAARYVYPGEDYWGQGTQVTVSS”, the “polyreactivity (PSR sort gate)” value is reported as “high polyreactivity”.
For “QVQLVESGGGLVQAGGSLRLSCAASGFIIIGYVMGWYRQSPGKERELVAAITSSVGSTYYADSVKGRFTISRDNAKNPVYLQMNSLKPEDTAVYYCAAEYYLLWSGMEYWGEGTQVTVSS”, the “polyreactivity (PSR sort gate)” value was “low polyreactivity”.
With “QVQLVESGGGLVQAGGSLRLSCAASGRTFSVYAMGWYRQAPGKERELVAAIRTSGGITYYADSVKGRFTISRDNAKNTVYLQMNSLKPEDTAVYYCAAETFRHYSYTRYYYWGQGTQVTVSS” the “polyreactivity (PSR sort gate)” value was “high polyreactivity”.
For “QVQLVESGGGLVQAGGSLRLSCAASGRIFYPNTMGWYIQAPGKERELVAAISRSGGSTYYTDSVKGRFTISRDNAKNTVYLQMNSLKPEDTAVYYCATVPYESRYDYWGQGTQVTVSS”, the “polyreactivity (PSR sort gate)” value was “high polyreactivity”.
